Test results: patent publication US20230212533A1, “PRODUCTS AND METHODS FOR THE TREATMENT OF NICOTINE DEPENDENCE” (THE REGENTS OF THE UNIVERSITY OF MICHIGAN, priority 2020, published 2023)

Target: CycN cytochrome c protein (Pseudomonas putida S16) (Pseudomonas putida S16)
Assay: anaerobic stopped-flow spectrophotometry at 542 nm, 4 °C; NicA2-Flred mixed with excess CycNox; linear fit of first-phase kobs against CycNox concentration, said to report on the bimolecular association of the two proteins

B1: NicA2 nicotine oxidoreductase (wild-type, Pseudomonas putida S16) (enzyme)
chain: TQKTNRASTVKGGFDYDVVVVGGGFAGATAARECGLQGYRTLLLEARSRLGGRTFTSRFAGQEIEFGGAWVHWLQPHVWAEMQRYGLGVVEDPLTNLDKTLIMYNDGSVESISPDEFGKNIRIAFEKLCHDAWEVFPRPHEPMFTERARELDKSSVLDRIKTLGLSRLQQAQINSYMALYAGETTDKFGLPGVLKLFACGGWNYDAFMDTETHYRIQGGTIGLINAMLTDSGAEVRMSVPVTAVEQVNGGVKIKTDDDEIITAGVVVMTVPLNTYKHIGFTPALSKGKQRFIKEGQLSKGAKLYVHVKQNLGRVFAFADEQQPLNWVQTHDYSDELGTILSITIARKETIDVNDRDAVTREVQKMFPGVEVLGTAAYDWTADPFSLGAWAAYGVGQLSRLKDLQAAEGRILFAGAETSNGWHANIDGAVESGLRAGREVKQLLS
kon: 1.3e+06 M⁻¹ s⁻¹
